Measurements published in patent publication US20130184442A1.

Legend:
Assay in all cases: SPR (Biacore 2000), antibody immobilized on CM5 chip, Langmuir 1:1 model
[1] = biological target: anti FITC-BSA mouse IgG2a (monoclonal, BioInvent International AB)
[2] = biological target: anti FITC-BSA human IgG1 (monoclonal, BioInvent International AB)
[3] = biological target: polyclonal rabbit IgG

Kd [1]: 550 nM | Kd [2]: 20 nM | Kd [3]: 60 nM
Substance: Zwt (recombinantly produced parental Z domain) (designed binder)
